According to patent publication US20250026829A1 (published 2025):
Where no end group is shown, it is not given here.

T1: PRAME peptide on HLA-A*24:02 (human, not fully specified (residue 6))
T1 peptide: PYLGQMINL

T2: PRAME peptide on HLA-A*24:02 (human)
T2 peptide: PYLGQMINL

B1: S6 (TCR)
alpha TRAV21 CDR3: AVPNPSARQLT
beta TRBV7-9 CDR3: ASSLEGQGVEQF
B2: S10 (TCR)
alpha TRAV27 CDR3: GAIWSTLGRLY
beta TRBV5-6 CDR3: SSFKGVNQPQH
B3: S4 (TCR)
alpha TRAV12-2 CDR3: AVNGPNNAGNMLT
beta TRBV6-2/3 CDR3: ASSPGGFGQPQH
B4: S5 (TCR)
alpha TRAV12-2 CDR3: AVNKGFQKLV
beta TRBV6-1 CDR3: ASSEGWGGQPQH
B5: S1 (TCR)
alpha TRAV24 CDR3: AFISWRSSGDKLT
beta TRBV25 CDR3: ASSSPLSGPLASPLH

target: … (SEQ ID NO: 1) HLA-A*24 complex, oxidised form of the peptide (human); assay: SPR, soluble TCR over immobilised biotinylated pHLA, equilibrium, 25 C

Binder	Kd
B1	241 µM
B2	193 µM

target: … (SEQ ID NO: 1) HLA-A*24 complex, reduced form of the peptide (human); assay: as above

Binder	Kd
B3	18.9 µM
B1	126 µM
B4	14.5 µM
B5	85 µM
B2	53 µM

Target: T1, PRAME peptide on HLA-A*24:02
Assay: SPR, equilibrium, 25 C; oxidised peptide; soluble, with an engineered disulfide between the constant domains

Binder	Kd
B1	241 µM
B2	193 µM

Target: T2, PRAME peptide on HLA-A*24:02
Assay: SPR, equilibrium, 25 C; reduced peptide; soluble, with an engineered disulfide between the constant domains

Binder	Kd
B3	18.9 µM
B1	126 µM
B4	14.5 µM
B5	85 µM
B2	53 µM
